Experimental data taken from US20220048967A1 (published 2022).
Numbered stars: 1 amine (or outer) side, 2 acyl side, 3 side chain; on linkers, the order of the positions; unused ones are H or OH. Square brackets hold non-standard residues; d marks the D form. Side chains are listed from the residue outwards. Ends that are not written are not given here. * marks the point of attachment. C20 diacid = O=C(O)CCCCCCCCCCCCCCCCCCC(=O)*; γGlu = O=C(O)[C@H](CCC(=O)[*:2])N[*:1]; AEEA = NCCOCCOCC(=O)O; Aib = CC(C)(N)C(=O)O

Key:
human GLP-1 receptor = human GLP-1 receptor (human, UniProt P43220 24-463); assay: cell-based or functional assay
[1] = biological target: Pro-Link-tagged Human GLP-1R (human, UniProt P43220 24-463); assay: cell-based or functional assay

Binder	hGLP1R GTPgS % Top (human GLP-1 receptor) [%]	hGLP1R GTPgS Rel EC50 (human GLP-1 receptor) [nM]	hGLP1R B-Arrestin2 Rel EC50 [1] [nM]	hGLP1R B-Arrestin2 % Top [1] [%]
Y[Aib]EGTFTSDYSILLDEK([AEEA-AEEA-γGlu-C20 diacid])AQ[Aib]AFIEYLIAGGPSSGAPPPS-NH2 (N-terminus assumed; SMILES CC[C@H](C)[C@H](NC(=O)[C@H](CC(C)C)NC(=O)[C@H](Cc1ccc(O)cc1)NC(=O)[C@H](CCC(=O)O)NC(=O)[C@@H](NC(=O)[C@H](Cc1ccccc1)NC(=O)[C@H](C)NC(=O)C(C)(C)NC(=O)[C@H](CCC(N)=O)NC(=O)[C@H](C)NC(=O)[C@H](CCCCNC(=O)COCCOCCNC(=O)COCCOCCNC(=O)CC[C@H](NC(=O)CCCCCCCCCCCCCCCCCCC(=O)O)C(=O)O)NC(=O)[C@H](CCC(=O)O)NC(=O)[C@H](CC(=O)O)NC(=O)[C@H](CC(C)C)NC(=O)[C@H](CC(C)C)NC(=O)[C@@H](NC(=O)[C@H](CO)NC(=O)[C@H](Cc1ccc(O)cc1)NC(=O)[C@H](CC(=O)O)NC(=O)[C@H](CO)NC(=O)[C@@H](NC(=O)[C@H](Cc1ccccc1)NC(=O)[C@@H](NC(=O)CNC(=O)[C@H](CCC(=O)O)NC(=O)C(C)(C)NC(=O)[C@@H](N)Cc1ccc(O)cc1)[C@@H](C)O)[C@@H](C)O)[C@@H](C)CC)[C@@H](C)CC)C(=O)N[C@@H](C)C(=O)NCC(=O)NCC(=O)N1CCC[C@H]1C(=O)N[C@@H](CO)C(=O)N[C@@H](CO)C(=O)NCC(=O)N[C@@H](C)C(=O)N1CCC[C@H]1C(=O)N1CCC[C@H]1C(=O)N1CCC[C@H]1C(=O)N[C@@H](CO)C(N)=O) [Example 330]	47.8	1.05	> 10900	–
XXEGTXTSDYSILLDKKAQXAFIEYLIEGGPSSGAPPPS (D-Tyr1, Aib2, αMeF6, K17 conjugated to (2-[2-(2-Amino-ethoxy)-ethoxy]-acetyl)2-(γ-Glu)-CO-(CH2)18-CO2H, Aib20, C-terminal amide (NH2)) [Example 329]	83.6	0.343	4.73	63.4
XXEGTXTSDYSIXLDKKAQXAFIEYLIEGGPSSGAPPPS (not fully specified; D-Tyr1, Aib2, αMeF6, αMeL13, K17 conjugated to (2-[2-(2-Amino-ethoxy)-ethoxy]-acetyl)2-(γ-Glu)-CO-(CH2)18-CO2H, Aib20, C-terminal amide (NH2)) [Example 335]	89.3	0.285	5.31	73
XXEGTFTSDYSIXLDEKAQXAFIEYLIAGGPSSGAPPPS (not fully specified; D-Tyr1, Aib2, αMeL13, K17 conjugated to (2-[2-(2-Amino-ethoxy)-ethoxy]-acetyl)2-(γ-Glu)-CO-(CH2)18-CO2H, Aib20, C-terminal amide (NH2)) [Example 341]	78.9	0.496	18.8	21.9
FXEGTFTSDYSIXLDKKAQXAFIEYLIAGGPSSGAPPPS (not fully specified; Aib2, αMeL13, K17 conjugated to (2-[2-(2-Amino-ethoxy)-ethoxy]-acetyl)2-(γ-Glu)-CO-(CH2)18-CO2H, Aib20, C-terminal amide (NH2)) [Example 337]	59.5	0.322	17.4	34.1
XXEGTFTSDYSIXLDKKAQXEFIEYLIAGGPSSGAPPPS (D-Tyr1, Aib2, αMeL13, K17 conjugated to (2-[2-(2-Amino-ethoxy)-ethoxy]-acetyl)2-(γ-Glu)-CO-(CH2)18-CO2H, Aib20, C-terminal amide (NH2)) [Example 290]	66.2	0.466	23.8	20
XXEGTXTSDYSIXLDKKAQXEFIEYLIAGGPSSGAPPPS (D-Tyr1, Aib2, αMeF6, αMeL13, K17 conjugated to (2-[2-(2-Amino-ethoxy)-ethoxy]-acetyl)2-(γ-Glu)-CO-(CH2)18-CO2H, Aib20, C-terminal amide (NH2)) [Example 345]	62	0.684	3.08	74.7
XXEGTFTSDYSIXLDKKAQXAFIEYLIAGGPSSGAPPPS (not fully specified; D-Tyr1, Aib2, αMeL13, K17 conjugated to (2-[2-(2-Amino-ethoxy)-ethoxy]-acetyl)2-(γ-Glu)-CO-(CH2)18-CO2H, Aib20, C-terminal amide (NH2)) [Example 340]	67.4	0.45	10.7	20.1
XXEGTXTSDYSIXLDKKAQXAFIEYLIEGGPSSGAPPPS (not fully specified; D-Tyr1, Aib2, αMeF(2F)6, αMeL13, K17 conjugated to (2-[2-(2-Amino-ethoxy)-ethoxy]-acetyl)2-(γ-Glu)-CO-(CH2)18-CO2H, Aib20, C-terminal amide (NH2)) [Example 336]	90.2	0.377	7.78	82.5
XXEGTFTSDYSIXLDKKAQXAFIEYLIEGGPSSGAPPPS (not fully specified; D-Tyr1, Aib2, αMeL13, K17 conjugated to (2-[2-(2-Amino-ethoxy)-ethoxy]-acetyl)2-(γ-Glu)-CO-(CH2)18-CO2H, Aib20, C-terminal amide (NH2)) [Example 334]	70.2	0.432	> 10300	–
XXEGTFTSDYSIXLDXKAQXAFIEYLIAGGPSSGAPPPS (D-Tyr1, Aib2, αMeL13, Orn16, K17 conjugated to (2-[2-(2-Amino-ethoxy)-ethoxy]-acetyl)2-(γ-Glu)-CO-(CH2)18-CO2H, Aib20, C-terminal amide (NH2)) [Example 346]	56.6	0.737	3.25	19.3
YXEGTFTSDYSIXLDKKAQXEFIEYLIEGGPSSGAPPPS (Aib2, αMeL13, K17 conjugated to (2-[2-(2-Amino-ethoxy)-ethoxy]-acetyl)2-(γ-Glu)-CO-(CH2)18-CO2H, Aib20, C-terminal amide (NH2)) [Example 333]	83.4	0.442	54.8	58.2
YXEGTFTSDYSIXLDEKAQXEFIEYLIAGGPSSGAPPPS (Aib2, αMeL13, K17 conjugated to (2-[2-(2-Amino-ethoxy)-ethoxy]-acetyl)2-(γ-Glu)-CO-(CH2)18-CO2H, Aib20, C-terminal amide (NH2)) [Example 331]	80.9	0.375	12.8	44.3
XXEGTFTSDYSIXLDEKAQXEFIEYLIAGGPSSGAPPPS (not fully specified; D-Tyr1, Aib2, αMeL13, K17 conjugated to (2-[2-(2-Amino-ethoxy)-ethoxy]-acetyl)2-(γ-Glu)-CO-(CH2)18-CO2H, Aib20, C-terminal amide (NH2)) [Example 342]	77.2	0.414	35	20.7
YXEGTFTSDYSIXLDEKAQXAFIXYLIAGGPSSGAPPPS (not fully specified; Aib2, αMeL13, K17 conjugated to (2-[2-(2-Amino-ethoxy)-ethoxy]-acetyl)2-(γ-Glu)-CO-(CH2)18-CO2H, Aib20, D-Glu24, C-terminal amide (NH2)) [Example 343]	74.9	0.522	45.5	41.4
YXEGTFTSDYSIXLDKKAQXEFIEYLIAGGPSSGAPPPS (not fully specified; Aib2, αMeL13, K17 conjugated to (2-[2-(2-Amino-ethoxy)-ethoxy]-acetyl)-(γ-Glu)-CO-(CH2)18-CO2H, Aib20, C-terminal amide (NH2)) [Example 339]	74.1	0.326	10.7	44
YXEGTFTSDYSIXLDEKAQXAFIEYLIAGGPSSGAPPPS (Aib2, αMeL13, K17 conjugated to (2-[2-(2-Amino-ethoxy)-ethoxy]-acetyl)2-(γ-Glu)-CO-(CH2)18-CO2H, Aib20, C-terminal amide (NH2)) [Example 332]	81.5	0.453	17.1	45.6
YXEGTFTSDYSIXLDEKAQXDFIEYLIAGGPSSGAPPPS (not fully specified; Aib2, αMeL13, K17 conjugated to (2-[2-(2-Amino-ethoxy)-ethoxy]-acetyl)2-(γ-Glu)-CO-(CH2)18-CO2H, Aib20, C-terminal amide (NH2)) [Example 344]	85.8	0.423	34.3	46
